Earlier results on 1 substance are cited in article PMC5538147.

This data set addresses UvrD (Escherichia coli) (UniProt P03018).

Take UvrD (from UniProt P03018): the Kd is 470 nM.
